# Patent publication US20250376538A1
# How the values were obtained:
# [1] = molecular target: plasma-derived coagulation Factor IXa (human) (UniProt P00740); test: cell-based or functional assay
# [2] = molecular target: plasma-derived coagulation Factor IXa (human) (UniProt P00740); test: FXa generation assay; FIXa stimulation by the one-armed antibody at eight concentrations, fitted with the quadratic binding equation
# UniProt P00740, sequence (P00740 47-191, chain 1 of 2): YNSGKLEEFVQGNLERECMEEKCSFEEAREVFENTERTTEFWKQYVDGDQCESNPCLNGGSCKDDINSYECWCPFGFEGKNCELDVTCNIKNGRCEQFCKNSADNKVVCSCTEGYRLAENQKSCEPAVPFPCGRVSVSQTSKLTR
# UniProt P00740, sequence (P00740 227-461, chain 2 of 2): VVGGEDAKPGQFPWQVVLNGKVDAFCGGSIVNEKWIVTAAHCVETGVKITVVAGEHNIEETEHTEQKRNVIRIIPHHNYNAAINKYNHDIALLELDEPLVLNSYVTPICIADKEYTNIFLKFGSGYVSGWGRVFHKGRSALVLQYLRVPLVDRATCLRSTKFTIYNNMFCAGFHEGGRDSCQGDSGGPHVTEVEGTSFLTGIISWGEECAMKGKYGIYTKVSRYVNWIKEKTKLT
molecule,measurement,setting,value
monovalent one-armed (OA) version of the anti-FIXa antibody of emicizumab (ACE910),Stimulation Index (FXa generation assay; estimated at full FIXa saturation),[1],1370 fold
same,Kd,[2],1100 nM
"monovalent one-armed (OA) antibody of anti-FIX(a) mAb1 (antibody, V domains shown, part only, constant regions and truncated heavy chain not given) VH: EVQLVESGGGLVQPGRSLRLSCAASGFTFHDYAMHWVRQVPGKGLEWVSGISWRGDIGGYVKSVKGRFTISRDNAKNSLYLQMNSLRAEDTALYYCVKSYGSGSFYNAFDSWGQGTLVTVSS VL: DIQMTQSPSTLSASVGDRVTITCRASQSISSWLAWYQQKPGKAPKFLIYKGSKADRGTPSRFSGSGSGTEFTLTISSLQPDDFATYYCLEYESYIRTFGQGTKVEIK",Stimulation Index (FXa generation assay; 1599 nM OA antibody),[1],9840 fold
"monovalent one-armed (OA) antibody of anti-FIX(a) mAb2 (antibody, V domains shown, part only, constant regions and truncated heavy chain not given) VH: EVQLVESGGGLVQPGRSLRLSCAASGFTFHDYAMHWVRQVPGKGLEWVSGISWRGDIGGYVKSVKGRFTISRDNAKNSLYLQMNSLRAEDTALYYCVKSYGSGSFYNAFDSWGQGTLVTVSS VL: DIQMTQSPSTLSASVGDRVTITCRASQSISSWLAWYQQKPGKAPKFLIYKGSKQDRGTPSRFSGSGSGTEFTLTISSLQPDDFATYYCLEYSSYIRTFGQGTKVEIK",Stimulation Index (FXa generation assay; 5640 nM OA antibody),[1],14200 fold
"monovalent one-armed (OA) antibody of anti-FIX(a) mAb3 (antibody, V domains shown, part only, constant regions and truncated heavy chain not given) VH: EVQLVESGGGLVQPGRSLRLSCAASGFTFHDYAMHWVRQVPGKGLEWVSGISWRGDIGGYVKSVKGRFTISRDNAKNSLYLQMNSLRAEDTALYYCVKSYGSGSFYNAFDSWGQGTLVTVSS VL: DIQMTQSPSTLSASVGDRVTITCRASQSISSWLAWYQQKPGKAPKFLIYKGSKTDRGTPSRFSGSGSGTEFTLTISSLQPDDFATYYCLEYESYIRTFGQGTKVEIK",Stimulation Index (FXa generation assay; 749 nM OA antibody),[1],8650 fold
"monovalent one-armed (OA) antibody of anti-FIX(a) mAb4 (antibody, V domains shown, part only, constant regions and truncated heavy chain not given) VH: EVQLVESGGGLVQPGRSLRLSCAASGFTFHDYAMHWVRQVPGKGLEWVSGISWRGDIGGYVKSVKGRFTISRDNAKNSLYLQMNSLRAEDTALYYCVKSYGSGSFYNAFDSWGQGTLVTVSS VL: DIQMTQSPSTLSASVGDRVTITCRASQSISSWLAWYQQKPGKAPKFLIYKSEKLDRGTPSRFSGSGSGTEFTLTISSLQPDDFATYYCLEYESYIRTFGQGTKVEIK",Stimulation Index (FXa generation assay; 1217 nM OA antibody),[1],10500 fold
"monovalent one-armed (OA) antibody of anti-FIX(a) mAb5 (antibody, V domains shown, part only, constant regions and truncated heavy chain not given) VH: EVQLVESGGGLVQPGRSLRLSCAASGFTFHDYAMHWVRQVPGKGLEWVSGISWRGDIGGYVKSVKGRFTISRDNAKNSLYLQMNSLRAEDTALYYCVKSYGSGSFYNAFDSWGQGTLVTVSS VL: DIQMTQSPSTLSASVGDEVTITCRASQSISSWLAWYQQKPGKAPKFLIYKGEKLDRGTPSRFSGSGSGTEFTLTISSLQPDDFATYYCLEYSSYIRTFGQGTKVEIK",Stimulation Index (FXa generation assay; 1463 nM OA antibody),[1],11200 fold
"monovalent one-armed (OA) antibody of anti-FIX(a) mAb6 (antibody, V domains shown, part only, constant regions and truncated heavy chain not given) VH: EVQLVESGGGLVQPGRSLRLSCAASGFTFHDYAMHWVRQVPGKGLEWVSGISWRGDIGGYVKSVKGRFTISRDNAKNSLYLQMNSLRAEDTALYYCVKSYGSGSFYNAFDSWGQGTLVTVSS VL: DIQMTQSPSTLSASVGDEVTITCRASQSISSWLAWYQQKPGKAPKFLIYKGSKLDRGTPSRFSGSGSGTEFTLTISSLQPDDFATYYCLEYSSYIRTFGQGTKVEIK",Stimulation Index (FXa generation assay; 3547 nM OA antibody),[1],13500 fold
"monovalent one-armed (OA) antibody of anti-FIX(a) mAb7 (antibody, V domains shown, part only, constant regions and truncated heavy chain not given) VH: EVQLVESGGGLVQPGRSLRLSCAASGFTFHDYAMHWVRQVPGKGLEWVSGISWRGDIGGYVKSVKGRFTISRDNAKNSLYLQMNSLRAEDTALYYCVKSYGSGSFYNAFDSWGQGTLVTVSS VL: DIQMTQSPSTLSASVGDEVTITCRASQSISSWLAWYQQKPGKAPKFLIYKAEKLDRGTPSRFSGSGSGTEFTLTISSLQPDDFATYYCLEYESYIRTFGQGTKVEIK",Stimulation Index (FXa generation assay; 851 nM OA antibody),[1],8730 fold
"monovalent one-armed (OA) antibody of anti-FIX(a) mAb8 (antibody, V domains shown, part only, constant regions and truncated heavy chain not given) VH: EVQLVESGGGLVQPGRSLRLSCAASGFTFHDYAMHWVRQVPGKGLEWVSGISWRGDIGGYVKSVKGRFTISRDNAKNSLYLQMNSLRAEDTALYYCVKSYGSGSFYNAFDSWGQGTLVTVSS VL: DIQMTQSPSTLSASVGDRVTITCRASQSISSWLAWYQQKPGKAPKFLIYKAEKLDRGTPSRFSGSGSGTEFTLTISSLQPDDFATYYCLEYESYIRTFGQGTKVEIK",Stimulation Index (FXa generation assay; 1276 nM OA antibody),[1],10100 fold
